Data as given in patent publication US20100249029A1 (Novo Nordisk, published 2010).
Substitutions are numbered along the chain they refer to. In names and notes the source's numbering stands. Each block holds one binder with its values, some of them ahead of it.

Tests used:
[1] = target: T1, Biotinylated prolactin receptor BirATag-Ser-PRLR (1-210) (human, UniProt P16471 25-234, biotinylated (BirA tag, biotin added during expression in E. coli)); test: SPR (Biacore); biotinylated BirATag-Ser-PRLR (1-210) amine-coupled to CM5 chip, variant injected at 3.13-50 nM; STDEV 0.17
T1 construct: range 1-210; also called BirA-Ser-PRLR (1-210); not shown: BirA tag (biotin acceptor tag)
T1 sequence: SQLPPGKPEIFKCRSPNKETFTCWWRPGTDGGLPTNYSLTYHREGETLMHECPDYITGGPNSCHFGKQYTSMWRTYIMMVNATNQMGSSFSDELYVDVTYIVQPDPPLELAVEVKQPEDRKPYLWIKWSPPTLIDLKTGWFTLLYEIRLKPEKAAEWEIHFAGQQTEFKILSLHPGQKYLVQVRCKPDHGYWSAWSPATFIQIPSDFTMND
Description: (§1) Biotinylated prolactin receptor BirATag-Ser-PRLR (1-210) was diluted to 20 μg/ml in 10 mM sodium acetate pH 4.0 (Biacore BR-1003-49) and immobilized on a CM5 chip (Biacore BR-1006-68) with the immobilization reagents 1-ethyl-3-(3-dimethylaminopropyl) carbodiimide hydrochloride (EDC), N-hydroxysuccinimide (NHS) and 1.0 M ethanolamine-HCl pH 8.5 (Biacore BR1000-50). The immobilization level was 1500 RU. The PRL variants prepared as described in Example 5 were diluted to a series of concentrations as following: 3.13/6.25/12.5/25/50 nM and run through the PRLR immobilized chip using HBS-EP (10 mM HEPES pH 7.4; 150 mM NaCl; 3 mM EDTA; 0.005% v/v Tween-20) as the running buffer under the following conditions: […]

[2] = target: T1, Biotinylated prolactin receptor …; test: SPR (Biacore); biotinylated BirATag-Ser-PRLR (1-210) amine-coupled to CM5 chip, variant injected at 3.13-50 nM; STDEV 0.28
Description: as §1

[3] = target: T1, Biotinylated prolactin receptor …; test: SPR (Biacore); biotinylated BirATag-Ser-PRLR (1-210) amine-coupled to CM5 chip, variant injected at 3.13-50 nM; STDEV 0.44
Description: as §1

[4] = target: T1, Biotinylated prolactin receptor …; test: SPR (Biacore); biotinylated BirATag-Ser-PRLR (1-210) amine-coupled to CM5 chip, variant injected at 3.13-50 nM; STDEV 0.042
Description: as §1

[5] = target: T1, Biotinylated prolactin receptor …; test: SPR (Biacore); biotinylated BirATag-Ser-PRLR (1-210) amine-coupled to CM5 chip, control injected at 3.13-50 nM; STDEV 1.63; one value under a double label
Description: as §1

[6] = target: T1, Biotinylated prolactin receptor …; test: SPR (Biacore); biotinylated BirATag-Ser-PRLR (1-210) amine-coupled to CM5 chip, variant injected at 3.13-50 nM; STDEV 0.092
Description: as §1

[7] = target: T1, Biotinylated prolactin receptor …; test: SPR (Biacore); biotinylated BirATag-Ser-PRLR (1-210) amine-coupled to CM5 chip, variant injected at 3.13-50 nM; STDEV 0.29
Description: as §1

[8] = target: T2, PRLR stably expressed on Ba/F3 cells (Ba/F3-PRLR) (UniProt P16471 25-622, limits assumed); test: cell-based or functional assay
T2 sequence (looked up): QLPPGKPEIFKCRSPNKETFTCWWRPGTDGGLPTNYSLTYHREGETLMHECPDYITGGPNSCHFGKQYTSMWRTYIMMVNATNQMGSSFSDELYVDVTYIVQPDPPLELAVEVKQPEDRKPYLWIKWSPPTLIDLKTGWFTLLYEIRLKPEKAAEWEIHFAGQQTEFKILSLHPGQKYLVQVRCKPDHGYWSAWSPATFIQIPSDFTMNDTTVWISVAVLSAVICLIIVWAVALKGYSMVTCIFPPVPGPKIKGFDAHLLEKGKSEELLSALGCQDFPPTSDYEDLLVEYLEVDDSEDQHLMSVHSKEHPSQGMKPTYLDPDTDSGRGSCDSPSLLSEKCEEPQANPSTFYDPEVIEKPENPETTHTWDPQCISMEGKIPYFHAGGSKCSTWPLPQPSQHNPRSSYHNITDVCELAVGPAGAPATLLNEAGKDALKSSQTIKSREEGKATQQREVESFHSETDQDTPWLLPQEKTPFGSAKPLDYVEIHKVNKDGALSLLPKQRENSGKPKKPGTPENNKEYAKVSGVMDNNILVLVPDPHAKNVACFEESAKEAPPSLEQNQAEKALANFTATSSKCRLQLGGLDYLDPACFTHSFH

[9] = target: T1, Biotinylated prolactin receptor …; test: SPR (Biacore); biotinylated BirATag-Ser-PRLR (1-210) amine-coupled to CM5 chip, variant injected at 3.13-50 nM; STDEV 0.000
Description: as §1

[10] = target: T1, Biotinylated prolactin receptor …; test: Biacore SPR, BirATag-Ser-PRLR (1-210) immobilised on a CM5 chip, PRL analogues 1.6-25 nM
Description: as §1, with “on the” for “on a”, “PRL analogues” for “PRL variants prepared as described in Example 5”, “following: 1.6/3.13/6.25/12.5/25” for “following: 3.13/6.25/12.5/25/50”

[11] = target: T2, PRLR stably expressed on Ba/F3 cells …; test: cell-based or functional assay; remark: listed apart in the source
[12] = target: T1, Biotinylated prolactin receptor …; test: SPR (Biacore); BirATag-Ser-PRLR (1-210) on CM5 chip, analogue injected at 1.6-25 nM (FIG. 5)
Description: as §1, with “on the” for “on a”, “PRL analogues” for “PRL variants prepared as described in Example 5”, “following: 1.6/3.13/6.25/12.5/25” for “following: 3.13/6.25/12.5/25/50”

B1: Ser-PRL Q73L, G129R, K190R (ligand)
chain: SLPICPGGAARCQVTLRDLFDRAVVLSHYIHNLSSEMFSEFDKRYTHGRGFITKAINSCHTSSLATPEDKEQALQMNQKDFLSLIVSILRSWNEPLYHLVTEVRGMQEAPEAILSKAVEIEEQTKRLLERMELIVSQVHPETKENEIYPVWSGLPSLQMADEESRLSAYYNLLHCLRRDSHKIDNYLKLLRCRIIHNNNC
Kd [1]: 2.6 nM

B5: Ser-PRL G129R, K190R, I194V, H195Y, N196R, N197D (ligand)
chain: B1 chain with L74Q, I195V, H196Y, N197R, N198D
Kd [4]: 3.2 nM

B6: Ser-PRL G129R (ligand)
chain: B1 chain with L74Q, R191K
notes: The control row gives one KD under the double label 'PRL G129R/Ser-PRL G129R'
Kd [5]: 13.9 nM

B7: Ser-PRL K42R, Q73L, G129R, K190R (ligand)
chain: B1 chain with K43R
Kd [6]: 2.6 nM

B9: wild type human prolactin (ligand)
chain: LPICPGGAARCQVTLRDLFDRAVVLSHYIHNLSSEMFSEFDKRYTHGRGFITKAINSCHTSSLATPEDKEQAQQMNQKDFLSLIVSILRSWNEPLYHLVTEVRGMQEAPEAILSKAVEIEEQTKRLLEGMELIVSQVHPETKENEIYPVWSGLPSLQMADEESRLSAYYNLLHCLRRDSHKIDNYLKLLKCRIIHNNNC
EC50, Ba/F3-PRLR proliferation assay [8]: 0.102 nM
EC50, stimulation (proliferation) assay, Ba/F3-PRLR cell line PRLR-09 [8]: 0.054 nM
EC50, stimulation (proliferation) assay, Ba/F3-PRLR cell line PRLR-32 [8]: 0.0375 nM

B10: PRL S61A, D68N, G129R, K190R (ligand)
chain: B9 chain with S61A, D68N, G129R, K190R
notes: Printed without the prefix Ser-; No. 23 carries the same substitutions with Ser-
Kd [9]: 1.4 nM

B12: [PRL Q73L, M75T, N76S, F80L, G129R] (ligand)
chain: B9 chain with Q73L, M75T, N76S, F80L, G129R
notes: also called HTPN-62
antagonist activity relative to [PRL G129R], Ba/F3-PRLR competition assay against 1 nM wtPRL [8]: ~4 fold
EC50 (so in the source); inhibition of proliferation of Ba/F3-PRLR cells stimulated with 1 nM wtPRL, OD490nM [11]: 13.8 nM
LOGEC50 (same fit) [11]: -7.86 LogM
fold higher affinity than wt PRL and [PRL G129R] [12]: ~2 fold

B13: PRL G129R (ligand)
chain: B9 chain with G129R
notes: also called [2H,15N]PRL-G129R; [2H,13C,15N]PRL-G129R
EC50, Ba/F3-PRLR proliferation assay [8]: 3.2 nM
highest proliferation rate relative to wtPRL, Ba/F3-PRLR proliferation assay [8]: 12 % of wtPRL
EC50 (so in the source); inhibition of proliferation of Ba/F3-PRLR cells stimulated with 1 nM wtPRL, OD490nM [11]: 64.6 nM
LOGEC50 (same fit) [11]: -7.19 LogM
Kd [5]: 13.9 nM

B14: [PRL S33A, Q73L, G129R, K190R] (ligand)
chain: B9 chain with S33A, Q73L, G129R, K190R
fold higher affinity than wt PRL and [PRL G129R] [12]: ~2 fold

Further lines, results first:

Kd [1]: 3.1 nM
B2: Ser-PRL S33D, Q73L, M75T, N76S, F80L, G129R, K190R (ligand)
chain: B1 chain with S34D, M76T, N77S, F81L

Kd [2]: 3.6 nM
B3: Ser-PRL Q73L M75T N76S F80L G129R (ligand)
chain: B1 chain with M76T, N77S, F81L, R191K

Kd [3]: 3.8 nM
B4: Ser-PRL S33A, Q73L, G129R, K190R, I194V, H195Y, N196R, N197D (ligand)
chain: B1 chain with S34A, I195V, H196Y, N197R, N198D

Kd [7]: 3.1 nM
B8: Ser-PRL S38I, D68N, G129R, S179T, I182V (ligand)
chain: B1 chain with S39I, D69N, L74Q, S180T, I183V, R191K

binding result [10]: binds
B11: PRL S61A, Q71A, Q73A, G129R (ligand)
prolactin variant: B9 chain with S61A, Q71A, Q73A, G129R
notes: It is not in the first reading's list; also called rational designed mutant
